{"source": "patent US20240398767A1", "about": "“INHIBITORS OF THE MTDH-SND1 PROTEIN COMPLEX FOR CANCER THERAPY” (The Trustees of Princeton University, priority 2021, published 2024)", "binders": {"B1": {"name": "CLuc-MTDH (other)", "chain": "MSGYVNNPEATNALIDKDGWLHSGDIAYWDEDEHFFIVDRLKSLIKYKGYQVAPAELESILLQHPNIFDAGVAGLPDDDAGELPAAVVVLEHGKTMTEKEIVDYVASQVTTAKKLRGGVVFVDEVPKGLTGKLDARKIREILIKAKKGGKSKLGGGSGGGSSSADPNSDWNAPAEEWGNWVDEYPYDVPDYA", "notes": "Expressed in HEK293T cells and used as cell lysate; also called CLuc-MTDH-HA; MTDH-CLuc"}, "B2": {"name": "SND1-NLuc (other)", "chain": "EQKLISEEDLVPTVQRGIIKMVLSGCAIIVRGQPRGGPPPERQINLSNIRAGNLARRAAATQPDAKDTPDEPWAFPAREFLRKKLIGKEVCFTIENKTPQGREYGMIYLGKDTNGENIAESLVAEGLATRREGMRANNPEQNRLSECEEQAKAAKKGMWSEGNGSHTIRDLKYTIENPRHFVDSHHQKPVNAIIEHVRDGSVVRALLLPDYYLVTVMLSGIKCPTFRREADGSETPEPFAAEAKFFTESRLLQRDVQIILESCHNQNILGTILHPNGNITELLLKEGFARCVDWSIAVYTRGAEKLRAAERFAKERRLRIWRDYVAPTANLDQKGGGSGGGSGGGSEDAKNIKKGPAPFYPLEDGTAGEQLHKAMKRYALVPGTIAFTDAHIEVNITYAEYFEMSVRLAEAMKRYGLNTNHRIVVCSENSLQFFMPVLGALFIGVAVAPANDIYNERELLNSMNISQPTVVFVSKKGLQKILNVQKKLPIIQKIIIMDSKTDYQGFQSMYTFVTSHLPPGFNEYDFVPESFDRDKTIALIMNSSGSTGLPKGVALPHRTACVRFSHARDPIFGNQIIPDTAILSVVPFHHGFGMFTTLGYLICGFRVVLMYRFEEELFLRSLQDYKIQSALLVPTLFSFFAKSTLIDKYDLSNLHEIASGGAPLSKEVGEAVAKRFHLPGIRQGYGLTETTSAILITPEGDDKPGAVGKVVPFFEAKVVDLDTGKTLGVNQRGELCVRGPMIMSGYVNNPEATNALIDKDG", "notes": "Expressed in HEK293T cells and used as cell lysate; also called Myc-SND1-NLuc; split-luc component"}, "B3": {"name": "MTDH (endogenous, SCP28 breast cancer cell lysate) (other, human, UniProt Q86UE4 1-582, looked up)", "chain": "MAARSWQDELAQQAEEGSARLREMLSVGLGFLRTELGLDLGLEPKRYPGWVILVGTGALGLLLLFLLGYGWAAACAGARKKRRSPPRKREEAAAVPAAAPDDLALLKNLRSEEQKKKNRKKLSEKPKPNGRTVEVAEGEAVRTPQSVTAKQPPEIDKKNEKSKKNKKKSKSDAKAVQNSSRHDGKEVDEGAWETKISHREKRQQRKRDKVLTDSGSLDSTIPGIENTITVTTEQLTTASFPVGSKKNKGDSHLNVQVSNFKSGKGDSTLQVSSGLNENLTVNGGGWNEKSVKLSSQISAGEEKWNSVSPASAGKRKTEPSAWSQDTGDANTNGKDWGRSWSDRSIFSGIGSTAEPVSQSTTSDYQWDVSRNQPYIDDEWSGLNGLSSADPNSDWNAPAEEWGNWVDEERASLLKSQEPIPDDQKVSDDDKEKGEGALPTGKSKKKKKKKKKQGEDNSTAQDTEELEKEIREDLPVNTSKTRPKQEKAFSLKTISTSDPAEVLVKNSQPIKTLPPATSTEPSVILSKSDSDKSSSQVPPILQETDKSKSNTKQNSVPPSQTKSETSWESPKQIKKKKKARRET", "notes": "Pulled down with anti-MTDH antibody and Protein-A/G beads; also called metadherin"}}, "key": {"[1]": {"molecular_target": "B2", "assay": "split-luciferase competition assay, HEK293T lysates", "experimental": "(§1) Luciferase-based screening. Seed HEK293T cells on 3×15 cm dish at 18-24 hr before transfection with 7-8×10⁶ cells per dish targeting 70-80% confluence when start transfection. 20 μg of pCDNA3.1-SND1-NLuc, pCDNA3.1-CLuc-MTDH, or 2 μg of pCDNA3.1-NLuc-CLuc plasmids that described above were transfected to each dish. 72 hr after transfection the cells were lysed with 5 ml of luciferase lysis buffer (2 mM EDTA, 20 mM DTT, 10% glycerol, 1% Triton X-100, 25 mM Tris base, adjusted to pH7.8 with H₃PO₄) at 4° C. for 20 min. The protein lysates were centrifuged at 13,000 rpm for 10 min, and the supernatant were collected.\n(§2) For small chemical compound screening, white, flat-bottom, solid 384-well plates were used. Compounds were added into each well as 0.1 μl of 10 mM DMSO solution (or same amount of DMSO, serve as control). The first and last columns were free, and MTDH wild type ([…]) or mutant ([…]) peptides were added as positive and negative controls right before screening. Same amount of MTDH-CLuc and SND1-NLuc were pre-mixed at 4° C. for 30 min to generate split-luc. 5 μl of split- or linked-luc was added into each well. […] The plates were incubated at 4° C. for 1 hr and luciferase activity at each well was measured."}, "[2]": {"molecular_target": "T1, SND1 (endogenous, SCP28 breast cancer cell lysate) (human, UniProt Q7KZF4 2-910)", "T1 construct": "Detected by Western blot after MTDH immunoprecipitation; also called Staphylococcal nuclease domain-containing 1", "T1 sequence (looked up)": "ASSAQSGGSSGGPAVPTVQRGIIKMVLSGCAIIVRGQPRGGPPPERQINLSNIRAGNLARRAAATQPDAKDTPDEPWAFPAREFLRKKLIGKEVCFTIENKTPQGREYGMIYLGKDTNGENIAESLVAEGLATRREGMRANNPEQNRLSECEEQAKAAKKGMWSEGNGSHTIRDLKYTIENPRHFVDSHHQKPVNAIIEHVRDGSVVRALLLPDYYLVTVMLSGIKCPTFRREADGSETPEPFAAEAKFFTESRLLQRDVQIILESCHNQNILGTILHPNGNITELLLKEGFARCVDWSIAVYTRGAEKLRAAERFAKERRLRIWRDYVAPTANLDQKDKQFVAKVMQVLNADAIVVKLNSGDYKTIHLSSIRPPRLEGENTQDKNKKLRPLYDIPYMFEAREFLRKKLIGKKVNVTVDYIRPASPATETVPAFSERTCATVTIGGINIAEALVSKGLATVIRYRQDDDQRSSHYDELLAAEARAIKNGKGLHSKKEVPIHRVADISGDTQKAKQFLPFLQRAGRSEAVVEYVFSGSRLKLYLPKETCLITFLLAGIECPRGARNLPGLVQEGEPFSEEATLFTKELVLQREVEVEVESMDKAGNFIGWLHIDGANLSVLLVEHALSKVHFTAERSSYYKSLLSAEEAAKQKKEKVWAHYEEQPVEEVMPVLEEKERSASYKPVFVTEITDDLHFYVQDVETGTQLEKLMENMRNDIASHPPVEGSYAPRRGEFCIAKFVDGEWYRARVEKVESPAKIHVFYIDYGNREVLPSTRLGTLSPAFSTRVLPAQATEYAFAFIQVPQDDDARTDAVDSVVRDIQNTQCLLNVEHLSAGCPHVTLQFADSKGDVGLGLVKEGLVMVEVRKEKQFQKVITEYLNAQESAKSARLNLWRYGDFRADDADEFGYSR", "assay": "Co-IP competition, SCP28 lysate, anti-MTDH antibody, Western blot for SND1", "experimental": "(§3) FIG. 10E, Schematic diagram of Co-IP based confirmation of MTDH-SND1 inhibitory compounds (left). SCP28 cells were lysed for IP assay.2 μg of MTDH antibody together with 500 μM of MTDH wild type (Pep-WT) or mutant (Pep-MT) peptides were added into each 1 ml of samples. Red star indicates wild type MTDH peptide competing off SND1 that binds to MTDH.\n(§4) Co-immunoprecipitation assay (Co-IP), which is a commonly used standard test to determine protein-protein interaction, was next employed to validate the candidates. Lysates of breast cancer cell line SCP28, a single cell-derived subline from the MDA-MB-231 TNBC cell line²⁵, was immunoprecipitated with anti-MTDH antibody alone or together with inhibitors (FIG. 3F and FIG. 10E). The samples were then incubated with Protein-A/G beads to pull down MTDH, followed by Western blot analysis to detect SND1. In such co-TP experiment, MTDH-WT but not MTDH-MT peptide blocks MTDH-SND1 interaction (FIG. 10E). […] Using multiple screening and validation platforms, two classes of compounds, C26s and C32s, were obtained that inhibit MTDH-SND1 interaction."}, "[3]": {"molecular_target": "B2", "assay": "split-luciferase complementation, 293T cells", "experimental": "as §1\n(§5) For small chemical compound screening, white, flat-bottom, solid 384-well plates were used. Compounds were added into each well as 0.1 μl of 10 mM DMSO solution (or same amount of DMSO, serve as control). The first and last columns were free, and MTDH wild type ([…]) or mutant ([…]) peptides were added as positive and negative controls right before screening. Same amount of MTDH-CLuc and SND1-NLuc were pre-mixed at 4° C. for 30 min to generate split-luc. 5 μl of split- or linked-luc was added into each well. 15 μl of luciferase assay buffer (25 mM Glycylglycine pH 7.8, 15 mM K₃PO₄ pH 7.8, 15 mM MgSO₄, 4 mM EGTA, 2 mM ATP added just before use, 10 mM DTT added just before use and 1 mM D-Luciferin added just before use) was then added into each well to get a 20 μl reaction system with 50 μM of compounds (peptides) in each well. The plates were incubated at 4° C. for 1 hr and luciferase activity at each well was measured."}, "[4]": {"molecular_target": "T2, NLuc (firefly luciferase N-terminal fragment, 1-416aa) (UniProt P08659 1-416 = luciferase)", "T2 construct": "range 1-416; Fragment alone, without SND1", "assay": "split-luciferase complementation, 293T cells", "experimental": "as §1, §5"}, "[5]": {"molecular_target": "T3, CLuc (firefly luciferase C-terminal fragment, 398-550aa) (UniProt P08659 398-550 = luciferase)", "T3 construct": "Fragment alone, without MTDH", "assay": "split-luciferase complementation, 293T cells", "experimental": "as §1, §5"}, "[6]": {"molecular_target": "T1, SND1 (endogenous, SCP28 breast cancer …)", "assay": "Co-IP from SCP28 lysate with 2 µg MTDH antibody", "experimental": "as §3, §4"}, "[7]": {"molecular_target": "B2", "assay": "split-luciferase competition assay, 50 µM peptide, competitor of CLuc-MTDH", "experimental": "as §1, §2"}, "[8]": {"molecular_target": "T4, SND1-NLuc", "T4 chain": "B2 chain", "assay": "split-luciferase assay (inhibition of SND1-NLuc/CLuc-MTDH interaction)"}}}
{"binder": "PNSDANAPAEEAGNW (also called Pep-MT; MTDH mutant peptide)", "note": "[mutant MTDH (MTDH-MT) peptide]", "values": [{"measurement": "binding result", "setting": "[1]", "result": "no binding (tested: 50 µM)"}, {"measurement": "binding result", "setting": "[2]", "result": "no binding (tested: 500 µM)"}]}
{"binder": "B1", "values": [{"measurement": "binding result", "setting": "[3]", "result": "binds"}, {"measurement": "binding result", "setting": "[4]", "result": "no binding"}]}
{"binder": "B2", "values": [{"measurement": "binding result", "setting": "[5]", "result": "no binding"}]}
{"binder": "B3", "values": [{"measurement": "binding result", "setting": "[6]", "result": "binds"}]}
{"binder": "PNSDWNAPAEEWGNW (also called MTDH-WT peptide; Pep-WT)", "note": "[wild type MTDH (MTDH-WT) minimal peptide]", "values": [{"measurement": "binding result", "setting": "[2]", "result": "binds"}, {"measurement": "binding result", "setting": "[7]", "result": "binds"}, {"measurement": "IC50", "setting": "[8]", "result": 1.2, "unit": "µM"}]}
